# Test results taken from US20090233868A1, “Small antiviral peptides against hepatitis C virus” (priority 2005, published 2009).
# B1: wt-La: purified recombinant full-length wildtype human La protein (p52) (protein, UniProt P05455 1-408, looked up)
# chain: MAENGDNEKMAALEAKICHQIEYYFGDFNLPRDKFLKEQIKLDEGWVPLEIMIKFNRLNRLTTDFNVIVEALSKSKAELMEISEDKTKIRRSPSKPLPEVTDEYKNDVKNRSVYIKGFPTDATLDDIKEWLEDKGQVLNIQMRRTLHKAFKGSIFVVFDSIESAKKFVETPGQKYKETDLLILFKDDYFAKKNEERKQNKVEAKLRAKQEQEAKQKLEEDAEMKSLEEKIGCLLKFSGDLDDQTCREDLHILFSNHGEIKWIDFVRGAKEGIILFKEKAKEALGKAKDANNGNLQLRNKEVTWEVLEGEVEKEALKKIIEDQQESLNKWKSKGRRFKGKGKGNKAAQPGSGKGKVQFQGKKTKFASDDEHDEHDENGATGPVKRAREETDKEEPASKQQKTENGAGDQ
# modifications: full-length
# Columns and labels:
# [1] = test system: HCV IRES mediated translation; assay: In vitro translation of uncapped HCV-IRES-Luc monocistronic RNA in rabbit reticulocyte lysate; format: biochemical, hepatitis C virus; conditions: 25 ng and 50 ng protein; data not shown
# nonspecific RNA = assay: Filter binding assay with nonspecific RNA probe; conditions: control probe, same filter-binding assay
molecule,measurement,setting,value
B1,Stimulation of HCV IRES mediated translation in absence of peptide,[1],dose dependent stimulation
same,Binding of non-specific RNA probe (filter binding),nonspecific RNA,did not show considerable binding
